Patent US20200055935A1 (published 2020)
Numbering of substitutions follows the chain as printed.

B1: anti-TIM-3 antibody clone 1B9 (antibody, V domains shown)
VH: QVQLQQWGAGLLKPSETLSLTCAVYGGSFSGYYWSWIRQPPGKGLEWIGEINHSGSTNYNPSLKSRVTISVDTSKNQFSLKLSSVTAADTAVYYCARGYVAGSDAWGQGTLVTVSS
VL: QSVLTQPPSVSAAPGQKVTISCSGSSSNIGNNYVSWYQQLPGTAPKLLIYGNNWRPSGIPDRFSGSKSGTSATLGITGLQTGDEADYYCEAWDYYVAAGYFGGGTKLTVL
B2: anti-TIM-3 antibody clone 1H10 (antibody, V domains shown)
VH: B1 VH with S103F, A105S
VL: B1 VL with E90D, A91S, Y95D, V96Y, Y100V
B3: anti-TIM-3 antibody clone 2F4 (antibody, V domains shown)
VH: B1 VH
VL: B1 VL with A91S, Y95D, V96Y, A98S, Y100V
B4: anti-TIM-3 antibody clone 1D9 (antibody, V domains shown)
VH: B1 VH with V100Y, S103D, A105Y
VL: B1 VL with Y94S, Y95A, V96Y, Y100S
B5: anti-TIM-3 antibody clone 2G6 (antibody, V domains shown)
VH: B1 VH with S103F, A105S
VL: B1 VL with E90D, A91S, Y94S, Y95S, V96D, A97S, A98S, Y100V
B6: anti-TIM-3 antibody clone 1F4 (antibody, V domains shown)
VH: B1 VH with S103Y, A105Y
VL: B1 VL with E90D, A91S, Y94A, Y95A, V96L, A97S, Y100V
B7: anti-TIM-3 antibody clone 1H9 (antibody, V domains shown)
VH: B1 VH with S103F, A105D
VL: B1 VL with E90D, A91S, Y94S, Y95A, V96D, A98S, Y100V
B8: anti-TIM-3 antibody clone 2C7 (antibody, V domains shown)
VH: B1 VH with S103Y, A105Y
VL: B1 VL with E90D, A91S, Y94S, V96L, Y100V

Molecular target: T1, human TIM-3 coupled to Fc (human, UniProt Q8TDQ0 22-200)
Test: SPR; culture supernatant

koff [s⁻¹] | Binder
4.3e-05 | B1
2.9e-05 | B2
8.7e-05 | B3
0.00018 | B4
0.00013 | B5
0.0003 | B6
0.00016 | B7
0.00021 | B8

Molecular target: T1, human TIM-3 coupled to Fc
Test: SPR; crude periplasmic extract

koff [s⁻¹] | Binder
2.8e-05 | B1
2.3e-05 | B2
0.00014 | B3
0.00018 | B4
0.00022 | B5
0.00029 | B6
7e-05 | B7
0.00019 | B8
